Experimental data taken from PMC9080080.

Biological target: SARS-CoV-2 Omicron-S (SARS-CoV-2) (UniProt P0DTC2)
Experiment: cryo-EM structure

## SARS-CoV-2 Omicron-S (from UniProt P0DTC2 340-527) (natural protein)
  stoichiometry N: 3
